The numbers were not newly measured in paper PMC8439649, which cites them from elsewhere.

For this series, the target named is mTORC1 (Homo sapiens) (UniProt P42345).

In general, Kd refers to a measure of binding affinity in units of concentration. Consider DEPTOR PDZ (from UniProt Q8TB45), for which the Kd is 7 µM.
